Results published in publication PMC10397321.

How the values were obtained:
[1] = target: photosystem I (PSI) monomer (Synechocystis sp. PCC 6803) (UniProt P29254)
[2] = target: photosystem I (PSI) monomer (Synechocystis sp. PCC 6803) (UniProt P29254); experiment: cryo-EM structure; native PSI3-IsiA18 supercomplex co-purified from Synechocystis sp. PCC 6803 membranes in DDM; 30 mM Tricine-NaOH pH 8, 75 mM NaCl, 0.02% DDM; 1.5 mg chlorophyll/ml; vitrified on holey carbon grids; C3 symmetry expansion and multibody refinement

iron-stressed induced protein A (IsiA), sequence (Q55274 whole entry): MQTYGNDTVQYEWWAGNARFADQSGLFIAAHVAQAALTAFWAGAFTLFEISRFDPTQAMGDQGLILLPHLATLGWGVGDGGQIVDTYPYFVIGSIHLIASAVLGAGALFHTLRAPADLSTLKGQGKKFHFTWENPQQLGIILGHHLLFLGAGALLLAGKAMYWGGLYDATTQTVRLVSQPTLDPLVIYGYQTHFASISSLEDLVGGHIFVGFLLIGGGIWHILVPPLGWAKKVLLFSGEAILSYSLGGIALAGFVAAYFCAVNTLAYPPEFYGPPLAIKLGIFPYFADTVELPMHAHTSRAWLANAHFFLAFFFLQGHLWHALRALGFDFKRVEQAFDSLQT
photosystem I (PSI) monomer (Synechocystis sp. PCC 6803), sequence (P29254 whole entry, looked up): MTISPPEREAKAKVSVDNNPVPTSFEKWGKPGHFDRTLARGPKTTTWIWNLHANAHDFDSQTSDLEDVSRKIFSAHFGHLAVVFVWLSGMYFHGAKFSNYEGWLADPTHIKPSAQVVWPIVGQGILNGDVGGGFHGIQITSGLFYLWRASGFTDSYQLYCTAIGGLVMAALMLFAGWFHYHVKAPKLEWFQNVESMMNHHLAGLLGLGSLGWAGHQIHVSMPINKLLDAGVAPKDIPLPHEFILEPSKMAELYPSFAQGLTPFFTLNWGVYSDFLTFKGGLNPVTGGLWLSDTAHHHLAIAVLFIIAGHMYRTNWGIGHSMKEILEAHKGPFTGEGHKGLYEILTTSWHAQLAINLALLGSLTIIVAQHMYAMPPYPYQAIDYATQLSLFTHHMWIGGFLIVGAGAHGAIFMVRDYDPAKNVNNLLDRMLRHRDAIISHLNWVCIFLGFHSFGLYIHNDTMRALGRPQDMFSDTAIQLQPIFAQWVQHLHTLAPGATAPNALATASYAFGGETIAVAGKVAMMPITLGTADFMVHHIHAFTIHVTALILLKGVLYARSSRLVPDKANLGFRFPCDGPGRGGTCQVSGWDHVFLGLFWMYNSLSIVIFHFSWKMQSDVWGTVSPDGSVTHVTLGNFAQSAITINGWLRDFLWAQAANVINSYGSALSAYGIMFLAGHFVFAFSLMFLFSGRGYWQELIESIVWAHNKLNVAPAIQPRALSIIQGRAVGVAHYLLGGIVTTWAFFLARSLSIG

single-molecule fluorescence lifetime: share of complexes with bi-exponential decay at all intensity levels (partially coupled, population II) [1] [%] | single-molecule fluorescence lifetime: share of complexes with fast mono-exponential decay at all intensity levels (continuously coupled) [1] [%] | single-molecule fluorescence lifetime: share of complexes with mono-exponential levels interleaved with bi-exponential levels (transiently coupled, population I) [1] [%] | stoichiometry N [2] | Substance
4 | 60 | 36 |  | iron-stressed induced protein A (IsiA) (from UniProt Q55274 1-342) (natural protein)
 |  |  | 3 | photosystem I (PSI) monomer (from UniProt P29254 1-751; P29255 1-731; P29256 24-165; Q55329 1-40; P72712 1-86) (complex)
